Results as given in paper PMC7928716 (Science Signaling, 2021).
Like-named read-outs stand apart in the source and are kept apart here. Square brackets hold non-standard residues; d marks the D form. * marks the point of attachment. FITC = O=C1OC2(c3ccc(O)cc3Oc3cc(O)ccc32)c2ccc(NC(=S)*)cc21; pY = N[C@@H](Cc1ccc(OP(=O)(O)O)cc1)C(=O)O; pS = N[C@@H](COP(=O)(O)O)C(=O)O

T1: SNTA1 PDZ (84–171) (human, UniProt Q13424 84-171)
T1 sequence: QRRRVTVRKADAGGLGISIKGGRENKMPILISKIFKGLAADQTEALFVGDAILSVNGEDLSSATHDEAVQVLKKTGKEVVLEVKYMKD

T2: TAX1BP3 PDZ (7–124) (human, UniProt O14907 7-124)
T2 sequence: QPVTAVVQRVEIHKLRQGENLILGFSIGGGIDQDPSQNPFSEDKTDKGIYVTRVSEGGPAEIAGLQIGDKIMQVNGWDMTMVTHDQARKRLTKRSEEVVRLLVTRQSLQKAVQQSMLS

T3: DOK1 PTB (151–256) (human, UniProt Q99704 151-256)
T3 sequence: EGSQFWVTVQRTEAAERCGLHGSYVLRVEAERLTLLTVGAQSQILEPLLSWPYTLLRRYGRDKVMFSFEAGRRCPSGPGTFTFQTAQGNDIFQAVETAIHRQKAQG

T4: FRS2 PTB (8–136) (human, UniProt Q8WU20 8-136)
T4 sequence: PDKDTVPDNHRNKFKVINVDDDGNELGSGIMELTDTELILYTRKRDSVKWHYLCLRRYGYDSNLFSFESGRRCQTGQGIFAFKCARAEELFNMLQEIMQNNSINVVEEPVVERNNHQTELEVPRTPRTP

T5: IRS1 PTB (157–267) (human, UniProt P35568 157-267)
T5 sequence: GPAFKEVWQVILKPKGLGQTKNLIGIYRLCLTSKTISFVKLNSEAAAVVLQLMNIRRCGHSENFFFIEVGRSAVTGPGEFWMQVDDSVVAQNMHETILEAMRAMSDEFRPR

T6: AP2 μ2 (160–435) (human, UniProt Q96CW1 160-435)
T6 sequence: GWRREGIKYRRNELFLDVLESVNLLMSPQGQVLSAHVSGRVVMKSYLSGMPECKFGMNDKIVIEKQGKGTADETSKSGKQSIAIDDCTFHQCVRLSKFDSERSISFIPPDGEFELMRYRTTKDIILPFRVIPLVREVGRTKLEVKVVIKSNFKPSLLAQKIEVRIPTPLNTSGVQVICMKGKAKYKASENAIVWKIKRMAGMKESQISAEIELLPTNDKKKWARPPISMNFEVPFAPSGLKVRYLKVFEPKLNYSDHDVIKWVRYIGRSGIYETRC

B1: FITC-labeled C-terminal peptide of ACE2(796–805) (peptide)
peptide: {FITC}-QNTDDVQTSF-OH
B2: Mouse SNX17 FERM (109–388) (domain or fragment)
chain: TQQVPTEEVSLEVLLSNGQKVLVTVLTSDQTEDVLEAVAAKLDLPDDLIGYFSLFLVREKEDGAFSFVRKLQEFELPYVSVTSLRSQEYKIVLRKSYWDSAYDDDVMENRVGLNLLYAQTVSDIEHGWILVTKEQHRQLKSLQEKVSKKEFLRLAQTLRHYGYLRFDACVADFPEKDCPVVVSAGNSELSLQLRLPGQQLREGSFRVTRMRCWRVTSSVPLPSGGTSSPSRGRGEVRLELAFEYLMSKDRLQWVTITSPQAIMMSICLQSMVDELMVKKS
B3: NHERF3 PDZ2 (132–224) (domain or fragment)
chain: QPRLCYLVKEGGSYGFSLKTVQGKKGVYMTDITPQGVAMRAGVLADDHLIEVNGENVEDASHEEVVEKVKKSGSRVMFLLVDKETDKRHVEQK
B4: FITC-labeled ACE2(787–798) peptide (peptide)
peptide: {FITC}-SKGENNPGFQNT-NH2
B5: TLN1 PTB (442–770) (domain or fragment)
chain: GVSFFLVKEKMKGKNKLVPRLLGITKECVMRVDEKTKEVIQEWNLTNIKRWAASPKSFTLDFGDYQDGYYSVQTTEGEQIAQLIAGYIDIILK

Assays:
Assay in all cases: fluorescence polarisation
MAGI1 PDZ1 (1–106) = MAGI1 PDZ1 (1–106) (human, UniProt Q96QZ7 1-106)
SCRIB PDZ1 (718–814) = SCRIB PDZ1 (718–814) (human, UniProt Q14160 718-814)
SNTA1 PDZ (84–171) = molecular target: T1, SNTA1 PDZ (84–171)
TAX1BP3 PDZ (7–124) = molecular target: T2, TAX1BP3 PDZ (7–124)
[1] = molecular target: B4
LYN SH2 (106–213) = LYN SH2 (106–213) (human, UniProt P07948 106-213)
MAP1LC3B ATG8 (2–119) [2] = molecular target: T7, MAP1LC3B ATG8 (2–119) (human, UniProt Q9GZQ8 2-119)
[…]2 ATG8 (2–115) [3] = molecular target: T8, […]2 ATG8 (2–115) (human, UniProt P60520 2-115)
[4] = molecular target: B1
MAP1LC3B ATG8 (2–119) [5] = molecular target: T7, MAP1LC3B ATG8 (2–119); remark: listed apart in the source
MAP1LC3C ATG8 (2–125) = MAP1LC3C ATG8 (2–125) (human, UniProt Q9BXW4 2-125)
[…]2 ATG8 (2–115) [6] = molecular target: T8, […]2 ATG8 (2–115); remark: listed apart in the source
DOK1 PTB (151–256) = molecular target: T3, DOK1 PTB (151–256)
FRS2 PTB (8–136) = molecular target: T4, FRS2 PTB (8–136)
IRS1 PTB (157–267) = molecular target: T5, IRS1 PTB (157–267)
TLN2 PTB (309–401) = TLN2 PTB (309–401) (human, UniProt Q9Y4G6 309-401)
AP2 μ2 (160–435) = molecular target: T6, AP2 μ2 (160–435)

T8 sequence (P60520 2-115): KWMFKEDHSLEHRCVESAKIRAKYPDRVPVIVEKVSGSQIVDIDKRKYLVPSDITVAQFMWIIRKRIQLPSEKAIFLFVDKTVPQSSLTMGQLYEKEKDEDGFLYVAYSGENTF
Sequence of MAP1LC3C ATG8 (2–125) (Q9BXW4 2-125): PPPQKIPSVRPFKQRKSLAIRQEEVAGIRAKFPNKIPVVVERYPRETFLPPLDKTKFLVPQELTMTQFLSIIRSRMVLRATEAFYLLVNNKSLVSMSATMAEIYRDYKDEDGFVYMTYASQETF
Sequence of MAGI1 PDZ1 (1–106) (Q96QZ7 1-106): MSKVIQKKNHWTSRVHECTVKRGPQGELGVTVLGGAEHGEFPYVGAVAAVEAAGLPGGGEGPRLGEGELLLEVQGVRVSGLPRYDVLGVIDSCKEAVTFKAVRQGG
Sequence of TLN2 PTB (309–401) (Q9Y4G6 309-401): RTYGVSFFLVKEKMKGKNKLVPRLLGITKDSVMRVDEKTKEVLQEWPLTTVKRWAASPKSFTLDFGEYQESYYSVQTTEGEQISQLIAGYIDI
Sequence of SCRIB PDZ1 (718–814) (Q14160 718-814): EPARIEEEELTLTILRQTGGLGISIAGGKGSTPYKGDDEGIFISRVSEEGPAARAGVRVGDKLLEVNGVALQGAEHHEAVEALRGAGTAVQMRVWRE

How did the Kd (MAGI1 PDZ1 (1–106)) turn out when B1 was run?
The Kd was > 100 µM.

What about the Kd (SCRIB PDZ1 (718–814)) of the same binder?
The Kd was > 100 µM.

And the Kd (SNTA1 PDZ (84–171))?
Its Kd is > 100 µM.

And the Kd (TAX1BP3 PDZ (7–124))?
The Kd was > 100 µM.

With B2 as the binder, how does the Kd [1] read?
Its Kd is ~100 µM.

How did the Kd (LYN SH2 (106–213)) turn out when {FITC}-RSGENPYASIDISKGE-NH2 [FITC-labeled ACE2(775–790) peptide, unphosphorylated] was run?
Its Kd is > 100 µM.

And the Kd (MAP1LC3B ATG8 (2–119) [2])?
Its Kd is > 100 µM.

What about the Kd ([…]2 ATG8 (2–115) [3]) of the same binder?
Its Kd is > 100 µM.

For B3, which Kd [4] is on record?
Its Kd is > 100 µM.

Which Kd (MAP1LC3B ATG8 (2–119) [5]) does the source give for {FITC}-DDDWTHLSSK-NH2 [FITC-labeled SQSTM1(335–344) probe peptide] here?
The Kd was 1.9 µM.

And the Kd (MAP1LC3C ATG8 (2–125))?
Its Kd is 0.33 µM.

And the Kd ([…]2 ATG8 (2–115) [6])?
The Kd was 11 µM.

With B4 as the binder, how does the Kd (DOK1 PTB (151–256)) read?
The Kd was > 100 µM.

What about the Kd (FRS2 PTB (8–136)) of the same binder?
Its Kd is > 100 µM.

And the Kd (IRS1 PTB (157–267))?
The Kd was > 100 µM.

And the Kd (TLN2 PTB (309–401))?
The Kd was > 100 µM.

How did the Kd (AP2 μ2 (160–435)) turn out when {FITC}-FDTEYQRLEAS-NH2 [FITC-labeled ATG9A(4–14) probe peptide] was run?
Its Kd is 1.64 µM.

How did the Kd (MAP1LC3B ATG8 (2–119) [2]) turn out when {FITC}-RSGENP[pY]ASIDISKGE-NH2 [FITC-labeled ACE2(775–790) peptide, pTyr781] was run?
The Kd was > 100 µM.

And the Kd ([…]2 ATG8 (2–115) [3])?
Its Kd is > 100 µM.

With {FITC}-RSGENPYA[pS]IDISKGE-NH2 [FITC-labeled ACE2(775–790) peptide, pSer783] as the binder, how does the Kd (LYN SH2 (106–213)) read?
The Kd was > 100 µM.

And the Kd (MAP1LC3B ATG8 (2–119) [2])?
The Kd was > 100 µM.

What about the Kd ([…]2 ATG8 (2–115) [3]) of the same binder?
Its Kd is > 100 µM.

How did the Kd [1] turn out when B5 was run?
The Kd was > 100 µM.
